The values below are quoted from earlier work in publication PMC3515962.

Broadly, the Kd is the equilibrium constant for the complex coming apart.

This data set concerns the target IL-2 receptor (Mus musculus) (UniProt P01590). Briefly: radioligand binding.
Chain of UniProt P01590 (P01590 22-236, chain 1 of 3): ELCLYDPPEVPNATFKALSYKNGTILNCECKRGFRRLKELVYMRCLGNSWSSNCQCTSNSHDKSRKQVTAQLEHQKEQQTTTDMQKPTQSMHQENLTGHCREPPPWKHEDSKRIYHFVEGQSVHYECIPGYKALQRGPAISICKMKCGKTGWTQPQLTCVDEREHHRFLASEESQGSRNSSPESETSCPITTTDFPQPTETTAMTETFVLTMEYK
Chain of UniProt P01590 (P16297 27-240, chain 2 of 3, further chain): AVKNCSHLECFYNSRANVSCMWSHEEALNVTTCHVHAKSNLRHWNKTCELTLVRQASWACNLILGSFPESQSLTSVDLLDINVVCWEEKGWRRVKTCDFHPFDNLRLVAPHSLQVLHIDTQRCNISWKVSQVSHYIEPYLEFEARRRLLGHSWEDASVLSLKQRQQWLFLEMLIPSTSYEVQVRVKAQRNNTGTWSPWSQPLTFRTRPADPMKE
Chain of UniProt P01590 (P34902 23-263, chain 3 of 3, further chain): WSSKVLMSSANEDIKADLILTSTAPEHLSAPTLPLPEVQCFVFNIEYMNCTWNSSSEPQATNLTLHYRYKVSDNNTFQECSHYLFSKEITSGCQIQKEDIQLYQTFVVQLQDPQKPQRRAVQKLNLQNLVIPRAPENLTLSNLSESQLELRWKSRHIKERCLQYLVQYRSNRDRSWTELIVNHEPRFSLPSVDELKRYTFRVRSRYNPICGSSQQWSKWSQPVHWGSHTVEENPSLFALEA

As to TCGF (IL-2) (from UniProt P60568), the Kd was 0.02 nM.
